In paper PMC7382286 (2020):
Where a chain is given by its changes, count along the chain named.

T1: biotinylated recombinant human Arginase 2 (human, UniProt P78540 23-354, biotin (biotinylated; site not stated))
T1 chain: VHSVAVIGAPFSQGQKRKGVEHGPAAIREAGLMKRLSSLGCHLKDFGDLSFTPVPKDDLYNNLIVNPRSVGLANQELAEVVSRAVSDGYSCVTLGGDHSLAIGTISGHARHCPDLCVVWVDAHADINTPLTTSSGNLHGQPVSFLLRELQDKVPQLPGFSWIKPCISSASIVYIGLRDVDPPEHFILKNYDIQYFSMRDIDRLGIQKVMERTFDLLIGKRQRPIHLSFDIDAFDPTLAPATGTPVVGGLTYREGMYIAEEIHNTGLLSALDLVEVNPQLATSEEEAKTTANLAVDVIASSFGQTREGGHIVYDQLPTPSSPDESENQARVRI

B1: Fab C0021181 (Fab, V domains shown)
VH: EVQLLESGGGLVRPGGSLRLSCAASEFTFRYDYHVWVRQAPGKGLEWVSAISGSGGSTYYADSVKSRFTISRDNSKNTLYLQMNSLRAEDTAVYYCARLRADLGLYMDLWGRGTLVTVSS
VL: QSVLTQPPSVSAAPGQKVAVSCSGSSSNIGSHYVSWYQQLPGTAPKLLIYDNSERTSGIPDRFSGSKSGTSATLGITGLQTGDEADYYCGTWDELTSNLVFGGGTRLTVL
B2: Fab C0021177 (Fab, V domains shown)
VH: EVQLLESGGGLVQPGGSLRLSCAASGFTFRYEVAAWVRQAPGKGLEWVSAISGPAPKGYYADSVKGRFTISRDNSKNTLYLQMNSLRAEDTAVYYCARLRADLGLYMDLWGRGTLVTVSS
VL: QSELTQPPTASAAPGQKVTISCSGSSSNIGNHYVSWYQQLPGTAPKLLIYDTTVLSSGIPDRFSGSKSGTSATLGITGLQTGDEADYYCGTWDELTSNLVFGGGTKLTVL
B3: Fab C0021139 (Fab, V domains shown)
VH: B1 VH with R13Q, E26G, R30Q, H34Q, S66G
VL: B1 VL with A19T, V20I, S31N, R106K
B4: Fab C0021158 (Fab, V domains shown)
VH: B2 VH with A55I
VL: B1 VL with A19T, V20I, S31N, S57A, I59V, R106K
B5: Fab C0021133 (Fab, V domains shown)
VH: B1 VH with R13Q, E26G, Y33H, S66G
VL: B2 VL with E3V, T9S, A10V, I20V
B6: Fab C0021128 (Fab, V domains shown)
VH: B2 VH with R30Q, A55I
VL: QSVLTQPPSVSAAPGQKVTISCSGSSSNIGNHYVSWYQQLPGTAPKLLIYDNAIESSGIPDRFSGSKSGTSATLGITGLQTGDGADYYCGTWDSNLSALVFGGGTKLTVL

Target: T1, biotinylated recombinant human Arginase …
Assay: BLI

Row | Kd [nM] | Binder
1 | 0.29 | B1
2 | 0.17 | B2
3 | 4.4 | B3
4 | 0.17 | B4
5 | 2.1 | B5
6 | 2.5 | B6

Target: T1, biotinylated recombinant human Arginase …
Assay: BLI
Remark: another data set of the same source

Row | koff [s⁻¹] | Binder
7 | 4.2e-05 | B1
8 | 3.5e-05 | B2
9 | 0.00087 | B3
10 | 4.5e-05 | B4
11 | 0.00045 | B5
12 | 0.00067 | B6
